Experimental data taken from the DeepSol protein solubility set.

Assay: soluble on expression in E. coli; label from the status in PepcDB or PDB records

With “MGSDKIHHHHHHMQKPHLLITSAGRRAKLVEYFVKEFKTGRVSTADCSPLASALYMADQHYIVPKIDEVEYIDHLLTLCQDEGVTALLTLIDPELGLLAQATERFQAIGVTVIVSPYAACELCFDKYTMYEYCLRQGIAHARTYATMASFEEALAAGEVQLPVFVKPRNGSASIEVRRVETVEEVEQLFSKNTDLIVQELLVGQELGVDAYVDLISGKVTSIFIKEKLTMRAGETDKSRSVLRDDVFELVEHVLDGSGLVGPLDFDLFDVAGTLYLSEINPRFGGGYPHAYECGVNFPAQLYRNLMHEINVPQIGQYLDDIYMLKHDTVTLISAAELQKIKR” the “soluble on expression in E. coli” value was “not soluble”.

With “MKQQEVRQRAFAMPLTSPAFPPGPYRFVNREYMIITYRTDPAAIEAVLPEPLQMAEPVVRYEFIRMPDSTGFGDYSESGQVIPVTFRGERGSYTLAMFLDDQPPLAGGRELWGFPKKAGKPRLEVHQDTLVGSLDFGPVRIATGTMGYKYEALDRSALLASLAEPNFLLKIIPHVDGSPRICELVRYHTTDVAIKGAWSAPGSLELHPHALAPVAALPVLEVLSARHFVCDLTLDLGTVVFDYLRQ” the “soluble on expression in E. coli” value was “soluble”.

With “DQNAYHSIRTLLKSPTTLGEVKEHITHALTITPTKGSVINAFEHMWGYFKKQCTQYEKQHSRELKALYIENQIDYFELLSFLKNLADKYAVEYLQQSTILNITK” the “soluble on expression in E. coli” value was “not soluble”.

With “MGSDKIHHHHHHMIETKFKQTELCRIPEDWDIGTFADFLITFSAGATPYRGIPDNFVGTIPWISSGELNYCEIENTREHISSDAQKNTHLTLHKPGTFLIAITGLEAAGTRGRCAFVKTPATTNQSCLAINSTDKMTVKYLFWFYRQWSDFLAFNFSQGSKQQSFTAEIVKRLPLYAPKYKEQEKIAEALSDVDKLIRELDTLIEKKRAVMQGTMQELLTAHRRLPGFVHPWRNTLVEKCCKITTGESNTRDQIESGIYPFYIRSATVMRSNSYIFDCEGVITIGDGQIGKVFHYVNGKFDLHQRCYLMYDFDDIDVKFFYFLFSFFFYNRVIALSAKATVDSVRRNMIAKMKINIPSTMQEQKAIANILSDMNDGIEAIEAKRDKYIAVRQGMMQQLLTGKIRLI” the “soluble on expression in E. coli” value was “not soluble”.

With “GPGSMSADKVVIIGAGPTGLGAAVRLMELKHANFHLYDGGTVPGGLSRSVLDDKGFLWDMGGHVIFSHYAYFDDVMNLAISDWNTLQRESWVRCSGAWVPYPFQSNIHRLPPEVRDTCLKGIEEAEAARSVAAPEKPQNFAEYVSRHFGEGIAEVFMRPYNFKVWAVPLHLMSTEWVGERVAAVNVERIRENIQLKRDDVGWGPNATFRFPKSGGTGAIYKAVWKMIPEAHKTLGPQCRVTKVNPITKTLTMANGEAVSYDALVSTMPLDDLLLAVAAGVEEDAETASASALKAPRLREIADKMVYSSTHIIGIGVKGCPPPEMRTACWLYFPEDGIPFYRATIFSRYADTNAPEGHWSILLEVSQNVLYKPVNVDTIVEDCIAGLRTVTLLRPEDEIVSRWHHMEKKGYPIPFVGRNELLEEVQPVLRDKYQIYSRGRFGAWRYEVANQDHSLMQGVEAVGHIFYGTDEDTVHKPEKVNTRRGEMRCTWSSTAS” the “soluble on expression in E. coli” value was “soluble”.

For “MASANSVIEGDLFKQKGASTFFNEGDINSSEGTIKHIYGLIIGTSNVSSSGTFATVNLTAGNKTGMTEFSLSNVLISDINSKSVPYTVTNATVLIDTAPVIDPICCPKSVDEKSKLAFKISAKDADGDRLTLSASGLPEGASFNRTSGAFAWTPAVGQTGVYTIAFKVSDGYLTDSENVTVTVNKLNNPPVIDFFEPINGSSFSEGERIGISVNATDAEKQALNYSIKIDGVMYSSDPAYIWETDYSSSGNHTIEVSVSDGIDEAKMQHSIYISECHPRYDVNEDGVVNILDITNVSREYETTVSKPYPRYDTNQDGEINILDLTLVGHHFGEKVELEHHHHHH”, the “soluble on expression in E. coli” value was “not soluble”.

For “PKPPIDLVVTETTATSVTLTWDSGNSEPVTYYGIQYRAAGTEGPFQEVDGVATTRYSIGGLSPFSEYAFRVLAVNSIGRGPPSEAVRARTGEQ”, the “soluble on expression in E. coli” value was “soluble”.

With “MGSDKIHHHHHHMTQRTFTPPWWARNPHVQTILPVLTKVNKPALTRQRLELEDGDFIDLDWLAKPTQTAPTQIEPIVVLVHGLEGSADSHYARRLLTLLDDHKVAALVHHHRSCSGVTNRLARSYHSGDTQDLHTTLSQLRRDYPDSPLLAVGYSLGGNVLTKYMGEHGSDSLVDRAVVISAPLQLGACAKRLRHGFSKVYQSYLIKQLQQKVRDKLALPDLSAQMPVTQAEVESLTTFHLFDDRVTAPLHGFDGVEDYYRRASGLPYLSQVAKPTLVIHAKDDPFMTDEVIPTQEALSPQVTYELHPQGGHVGFIDGGHPFKPRYYLEQRIVHFLLEA” the “soluble on expression in E. coli” value was “not soluble”.

In the case of “MGSDKIHHHHHHMIINRSKDSSSNEISFVSKDMGFLLTQSEVSYNFKDKLVEDIAKQVFAENRLSVGTIAKTNVKYTKMFIGVNGYDTIMSAYTEASKKTKKKYMIEANLDKFNVIEKGTVTLSVMFEEGFNIINTTFSESMENVKNKVIVVDQYGSKISEKIDNEIFKEVNVIMQKVIQQQENQDVDIDSEFNGIEKSCSLKGYGDVSCITGRGVKVKDSYTKLVGLFYIDTDKHTWQNGEYQIELELNFQNLMDEKSAGQDEPKEESNLGGEDYAGGKEFTAEFTAYCPRKEEGGDTDCRKKKLDPSKKTCAAPMVGKYEQTYYTKEFLNKHPLLNYGDEIQVITGVSGRDGVYKVNDVGPAITIEKNGTYHIDILFGNVEEASKFGRRKGKIIIGGYSGNVSDKAKIVISEAKKHLGKPYKWGGNGPSSFDCSGLMVYCFKKVNVSLPRTSNQQSKKGKKVEQKNLQAGDLVFFHNPVSHVGLYIGNGEFLHAPQKGDVVKISKLSSRRDFNTARRVL”, the “soluble on expression in E. coli” value was “not soluble”.

For “QRDIPVQFIVAGVKRSDLRNLVEERIRKEGTKTREIRYREIGHYNGSVENIHLSVDKYEAAGGTEYFISYVTDDDHIVGFVRLRQPSEMAHRQEMLGSAIVRELKVFGQEVPVGRRDLKNWQHHGYGMRLMEEAERIARDDLGLDRILVISGIGVRQYFRKIGYEDLGPYVAKSLK”, the “soluble on expression in E. coli” value was “not soluble”.

In the case of “MGSDKIHHHHHHMEIIAGYRTTSDSRYIALIKADGNNAGKIFGNTVTFSEYVDKSFRLDFGVKKMFYDTLLDIMRASSDESIKKDLVSRILLGVLYLGGDDIMLLSPSAIAVPFAVKMFKRSLEYTGFTFKVGIISVKPDHPVQFAYGAVNALMEESKIHTGEKSSIGVLVFSSTLASEGVVKSDLKNYRKEKESFLVVSNDVDDVERLLNLMELDDFGKLMELYWNPEEGRKVIRDKIRSLERFVNYADTHDFYNTLAYLIRSKAKSEENSLIKRIIDLTIKGRDDFVFPLYDYYFILKSIRVGI”, the “soluble on expression in E. coli” value was “not soluble”.

In the case of “MGSDKIHHHHHHMKQLFDNVSAMCSKLTTKKYSTSFSLGIHFLHKKLHDPVYAIYGFVRFADEIVDSFHGYDKKRLMAQFRRDTAFALQDKISLNPILNSFQHVVHTYNIEWELIDTFLKSMEMDLDQSAHNEQSYKEYIIGSAEVVGLMCLRVFVKGDVDMYEKQKPHAMSLGAAFQKVNFLRDAKEDFDSLGRTYFPDVSMEKFDRHIKQNIESDIEKDFQHALIGIKQLPAESRLGVYLAYIYYKNLFHKIKSIPPERMLKERIRIPNLNKFALLFQCYFRNQFNIL”, the “soluble on expression in E. coli” value was “not soluble”.

With “MAREFKRSDRVAQEIQKEIAVILQREVKDPRIGMVTVSDVEVSSDLSYAKIFVTFLFDHDEMAIEQGMKGLEKASPYIRSLLGKAMRLRIVPEIRFIYDQSLVEGMRMSNLVTNVVREDEKKHVEESNLEHHHHHH” the “soluble on expression in E. coli” value was “soluble”.

With “MSLARSMTTGRSGTIGVVVGDIENPFFSLAVRGITDVARQAGFTVILINSGEDAAAEKAAIRTLLAKRVDGLIVSPAKENDVEHLHEVIRSGLPLALLDRGSDTLEVDTVLADDRYTAENVTSRLIALGHRRIAYLTACDTPDHRFRTPQDISTGSVRRRIEGYLAVCREAGFIGMEDWVKVGAVTPERTHRIVIETLQSGHRPTAIIASDSIIGLEVFKAHRELGLNIPGDLSLVSFHDADWTSVTTPPVTVVRQPVYELGATAARLLVERLNGEDRAARKVVLKNEVVERASTRAIEGHHHHHH” the “soluble on expression in E. coli” value was “soluble”.

In the case of “SNAMLFDEKEILAITRWAKLYANQSPDRILLGSNDIPPEYRAAVATQIELWPRLRNKLPQWAGISSLYIPSRLSLEQSSGAVTSSYKSRFIREGTKVVDLTGGLGIDFIALMSKASQGIYIERNDETAVAARHNIPLLLNEGKDVNILTGDFKEYLPLIKTFHPDYIYVDPARRSGADKRVYAIADCEPDLIPLATELLPFCSSILAKLSPMIDLWDTLQSLLHVQELHVVAAHGEVKELLVRMSLNEATIPPEKVPIHAINLLLEDTVIPFIFTMEEERSISIPYTDSIDKYVYEPHTALLKAGAFKTVAYRLGLRKLHPNSHLYTSEAYESAFPGRTFVLEEIIPFSTSVLKQLRKVVPQASISCRNFPLSPIELRQRSKMADGGEKTLMGTTMADGKKVLLLLRKAE”, the “soluble on expression in E. coli” value was “soluble”.

For “MTIGQKNTNIDPRFPHHHPRPQSFWEARAKALESLLIEKGHLSSDAIERVIKHYEHELGPMNGAKVVAKAWTDPAFKQRLLEDSETVLRELGYYGLQGEHIRVVENTDTVHNVVVCTLCSCYPWPLLGLPPSWYKEPAYRARVVKEPRQVLKEFGLDLPDSVEIRVWDSSSEIRFMVLPQRPEGTEGMTEEELAKLVTRDSMIGVAKIEPPKVTVG”, the “soluble on expression in E. coli” value was “soluble”.

For “MIEFRNVSKVYPNGTKGLNNINLKIQKGEFVVMVGLSGAGKSTLLRSVNRLHEITEGEIMIEGESITAAKGKGLRRMRRDIGMIFQSFNLVKRSTVLKNVLAGRVGYHSTLRTTLGLFPKEDLELAFQSLKRVNILEKAYARADELSGGQQQRVSIARALAQEAKIILADEPVASLDPLTTKQVLEDLKKINEDFGITTIVNLHSIDLARQYATRIIGLHAGEIVFDGLVEEATDEKFAEIYGDVVQKSELLEVAVK”, the “soluble on expression in E. coli” value was “not soluble”.

In the case of “MGSDKIHHHHHHMPILLLAQSDAHLSLGAAQGPGAELDRRACEQLDIPVLRRPLGGGVVWVDPGQLNYFFIFPAAAGVRRAPELFDRIAPWVLAVHAHFGLEVEVRGGQDFWCRGRKIGGTGAASIGHSLVLGGSFILEAQWTSFADCVAAPSAGFRAWLKEALEEDLGSWSRLLGRVVGPEVVLDACPALLHAAGWDVVVTRPTEAERRAMTQVELEDVDWEQPVRRRVRAGIKLKAGAFLTEQHWPDGHWLRVWTENGTFRRIAGSAWSAGQGDTLTGLQPGSERFDERLREMAGAGAALWGERLSETAVWAD”, the “soluble on expression in E. coli” value was “not soluble”.

For “PQMKTLETRSCILRPASLDDVEDFFDCYKNKIVVKHLPFSEHKSLEDTRKFIKSFFLNPYKKGKIGHFAIVYKRDNKVIGNMGFNNINPKALEAEIGICINPSYWGHDFATEITKRVIQYGFRELNLNKIIAITYEENQNSTKSLDLLGFKCTGKYIKKIHTGNTVKNVPCYQYELKKQ”, the “soluble on expression in E. coli” value was “not soluble”.

For “EYRHLVLNQLRNMGGTRFFVSLNNHQIDVDPLPESERKTLVINQVREVLESELSGIPNIEVEFTQRDKLKVFNNELPIDELPLLWAHYSLSFGDLNPPILVMQVEVAQNEWFYLAAVLPAPYINLETNYFELRQ”, the “soluble on expression in E. coli” value was “not soluble”.

With “TRVYDESGKEVGKLFGQKGTFVELDNISPYIQDAVISTEDRGFYQHKGYSIKGIARAVVGKLTFGKIGGGGGGSTITQQLAKNAYLTQEQTLDRKARELFLAIEIEKKYSKKDILAMYLNNSYFGNGVWGVQDAARKYFGVDASQVTVGEAATLAGMLKGPGIYNPIDYI” the “soluble on expression in E. coli” value was “not soluble”.

In the case of “MSLRKFMVLGYGEIGKLAIKHLLSHKVECIYLIVRDKSKASDLEGEIVEVLDFNEKNQVINEIDCIVSCTAAPHTVVRNEDIKTEGETIHIYDLAVPRDVDKELSEKERVILKDIDEISKIDDKNKKIRKERMEEYKHIVEESIDEFLNWLKIREVSSKIRNIKIRENEICSERIKTFSNKGNGENAKLAERMIKSTADAYVNRAIELLKSEALKGSDSYCAEIIEKIFLTEGHHHHHH”, the “soluble on expression in E. coli” value was “not soluble”.
